The record followed here is US11278600B2, “Human alpha-galactosidase variants” (Codexis, Inc., priority 2014, dated 2022).

A short description of series [1]: Thermostability of purified GLA variants (Sypro Orange melting). The conditions noted are these: purified enzyme 20 μg/ml in 1×PBS, 30 to 75° C. at 0.5° C./min. It is filed as physicochemical. The protocol: (§1) GLA variants were purified from mammalian culture supernatant essentially as known in the art (See, Yasuda et al., Prot. Exp. Pur., 37, 499-506 [2004]). Concanavalin A resin (Sigma Aldrich) was equilibrated with 0.1 M sodium acetate, 0.1 M NaCl, 1 mM MgCl2, CaCl2, and MnCl2 pH 6.0 (Con A binding buffer). Supernatant was diluted 1:1 with binding buffer and loaded onto the column. The column was washed with 15 volumes of Concanavalin A binding buffer, and samples were eluted by the addition of Concanavalin A binding buffer including 0.9 M methyl-α-D-mannopyranoside and 0.9 M methyl-α-D-glucopyranoside. Eluted protein was concentrated and buffer exchanged three times using a Centricon® Plus-20 filtration unit with a 10 kDa molecular weight cut off (Millipore) into ThioGal binding buffer (25 mM citrate-phosphate, 0.1 M NaCl, pH 4.8). Buffer exchanged samples were loaded onto a Immobilized-D-galactose resin (Pierce) equilibrated with ThioGal binding buffer. The resin was washed with six volumes of ThioGal binding buffer and eluted with 25 mM citrate phosphate, 0.1 M NaCl, 0.1 M D-galactose, pH 5.5. […]
The thermostability of WT GLA (SEQ ID NO:5) and SEQ ID NO:42 were determined to assess their overall stability. […] The plates were heated from 30 to 75° C. at 0.5° C./min on a RT-PCR machine and Sypro Orange fluorescence was monitored. […]

Series [2] is described as follows: Serum pharmacokinetics of purified GLA variants in rats. It is filed as in vivo, Sprague-Dawley rats. The conditions noted are these: rat, intravenous 1 mg/ml at 1 ml/kg; four hours post-administration. The protocol: Purified GLA variants produced as described in Example 4 were assessed for stability in the serum of live rats. WT GLA (SEQ ID NO:5) or SEQ ID NO:42 at 1 mg/ml were administered intravenously at 1 ml/kg to three naïve jugular vein cannulated Sprague-Dawley rats (7-8 weeks old) each. Prior to administration and at 5, 15, 30, 60, 120, and 240 minutes post-administration, […] was collected from each rat in an EDTA tube and centrifuged at 4° C. and 6000 rpm to generate >80 μL of serum per sample. Samples were frozen and stored on dry ice prior to analysis. For analysis, serum (10 μL) was added to 40 μL of 5 mM MUGal in McIlvaine buffer pH 4.4, and incubated at 37° C. for 1 h. Samples were quenched with 50 μL of 1 M sodium carbonate, diluted 1:100 in 1 M sodium carbonate and analyzed by fluorescence spectroscopy (Ex. 355, Em. 448). Four hours post-administration SEQ ID NO:42 retained 15.3% of maximal activity, while WT GLA retained only 0.66% (See, FIG. 9).

Series [3] in a line: Activity on alternative substrate NBD-GB3 (TLC). It counts as biochemical. The note with it: HEK293T culture supernatant, pH 4.8, 37° C., 1 h. The protocol: To confirm that improved activity in MUGal hydrolysis corresponded to more native substrates, mammalian cell-expressed GLA variants were assayed using N-Dodecanoyl-NBD-ceramide trihexoside (NBD-GB3) as substrate. HEK293T culture supernatant (10 μL), 100 mM sodium citrate pH 4.8 (80 μL), and NBD-GB3 (0.1 mg/ml) in 10% ethanol (10 μL) were added to microcentrifuge tubes. Samples were inverted to mix, and incubated at 37° C. for 1 h. The reaction was quenched via addition of 50 μL, methanol, diluted with 100 μL, chloroform, vortexed and the organic layer was isolated for analysis. The organic phase (10 μL) was spotted onto a silica plate and analyzed by thin layer chromatography (chloroform:methanol:water, 100:42:6), detecting the starting material and product using a 365 nm UV lamp.

Series [4] in a line: Thermostability of GLA variants expressed in HEK293T cells. The note with it: HEK293T supernatants; 30-54° C. for 1 h; residual MUGal activity. It is filed as biochemical.
Series [5] is described as follows: pH stability of purified GLA variants over time. It counts as biochemical. The conditions noted are these: purified enzyme; McIlvaine buffer pH 4.1 or 7.5, 0-24 h at 37° C. The protocol: as §1, with “buffer.” for “buffer. The resin was washed with six volumes of ThioGal binding buffer and eluted with 25 mM citrate phosphate, 0.1 M NaCl, 0.1 M D-galactose, pH 5.5.”
To confirm that purified GLA variants show the desired pH stability observed after expression in yeast, WT GLA (SEQ ID NO:5) and SEQ ID NO:42 were incubated in acidic or basic buffers and analyzed for residual activity. […] Samples were quenched with 100 μL, of 1 M sodium carbonate, diluted 1:4 in 1 M sodium carbonate and analyzed by fluorescence spectroscopy (Ex. 355, Em. 448).

Positions count from the first letter of the chain named. In names and notes the source's numbering stands.

The molecule “WT GLA: wild-type mature human alpha galactosidase A (GLA), polypeptide sequence of SEQ ID NO: 5 [reference compound]” had a melting temperature in series [1] of 37 °C. The “GLA activity retained in serum, % of maximal activity” value in series [2] turned out to be 0.66%.

B1: Variant 218: GLA variant; M322I/E367N/R373K relative to SEQ ID NO: 10 (protein)
chain: LDNGLARTPTMGWLHWERFMCNLDCQEEPDSCISEKLFMEMAELMVSEGWKDAGYEYLCIDDCWMAPQRDSEGRLQADPQRFPHGIRQLANYVHSKGLKLGIYADVGNKTCAGFPGSFGYYDIDAQTFADWGVDLLKFDGCYCDSLENLADGYKHMSLALNRTGRSIVYSCEWPLYMWPFQKPNYTEIRQYCNHWRNFADIDDSWASIKSILDWTSFNQERIVDVAGPGGWNDPDMLVIGNFGLSWNQQVTQMALWAIMAAPLFMSNDLRHISPQAKALLQDKDVIAINQDPLGKQGYQLRQGDNFEVWERPLSGLAWAVAIINRQEIGGPRSYTIAVASLGKGVACNPACFITQLLPVKRKLGFYNWTSRLKSHINPTGTVLLQLENTMQMSLKDLL
modifications: Synthetic Polypeptide sequence of Variant No. 218
With B1, the “conversion of NBD-GB3” value in series [3] was “Significant conversion”. In series [4], the “increase of Tm of the enzyme” value worked out at 4 °C.

B2: Variant 402: GLA variant; polypeptide sequence of SEQ ID NO: 42 (protein)
chain: B1 chain with L44R, S166P, F217R, N247D, Q302K, L316D, A337P, K362Q
modifications: Synthetic Polypeptide sequence of Variant No. 402
B2: the “stability (residual activity) under acid and basic challenge compared to WT GLA” value in series [5] is listed as “considerably more stable”. The molecule further came in with a melting temperature in series [1] of 55 °C. Besides, in series [2], the “GLA activity retained in serum, % of maximal activity” value came to 15.3%.
